This note sets out measurements from article PMC7405809.

For test [1], the target named is BFL-1ΔC C4S/C19S conjugated to 4E14 at C55 (UniProt Q16548). As to the kind of experiment: fluorescence polarisation.
The next test deals with His6-BFL-1ΔC C4S/C19S (UniProt Q16548). As to the kind of experiment: fluorescence polarisation.

For FITC-BID BH3 peptide, the half-maximal effective concentration (EC50) in test [1] came out at 1300 nM; in the test with His6-BFL-1ΔC C4S/C19S, 23 nM.
